Assay results taken from US20190233493A1 (Sanofi, published 2019).
Values belong to the binder of their own block, whether it stands above or below them. *1 amine or outer side, *2 acyl side, *3 side chain or, on linkers, in order; H or OH if unused. Primed or numbered codes have the meaning given here. Side-chain parts run from the residue outwards. [ ]: non-standard residue; d: D form. The star is where a group is joined. TTDS = 4-[3-[2-[2-(3-aminopropoxy)ethoxy]ethoxy]propylamino]-4-oxo-butanoyl, O=C(CCC(=O)[*:2])NCCCOCCOCCOCCCN[*:1]; PEG8′ = 2-[2-[2-[2-[2-[2-[2-[2-[2-aminoethoxy]ethoxy]ethoxy]ethoxy]ethoxy]ethoxy]ethoxy]ethoxy]ethoxy]propanoyl; TTDS″ = 4-[3-[2-[2-(3-aminopropoxy)ethoxy]ethoxy]propylamino]-4-oxo-butanoyl; TtdDga = O=C(COCC(=O)[*:2])NCCCOCCOCCOCCCN[*:1]; γGlu = O=C(O)[C@H](CCC(=O)[*:2])N[*:1]; Pentadecanoyl = CCCCCCCCCCCCCCC(=O)*; Stearoyl = CCCCCCCCCCCCCCCCCC(=O)*; Palmitoyl = CCCCCCCCCCCCCCCC(=O)*; Myristoyl = CCCCCCCCCCCCCC(=O)*; αMeK = C[C@](N)(CCCCN)C(=O)O; Nle = CCCC[C@H](N)C(=O)O; PEG2′ = PEG2 spacer unit; Aib = CC(C)(N)C(=O)O

Biological target: T1, RXFP1 receptor (UniProt Q9HBX9 1-757, limits assumed)
T1 sequence (looked up): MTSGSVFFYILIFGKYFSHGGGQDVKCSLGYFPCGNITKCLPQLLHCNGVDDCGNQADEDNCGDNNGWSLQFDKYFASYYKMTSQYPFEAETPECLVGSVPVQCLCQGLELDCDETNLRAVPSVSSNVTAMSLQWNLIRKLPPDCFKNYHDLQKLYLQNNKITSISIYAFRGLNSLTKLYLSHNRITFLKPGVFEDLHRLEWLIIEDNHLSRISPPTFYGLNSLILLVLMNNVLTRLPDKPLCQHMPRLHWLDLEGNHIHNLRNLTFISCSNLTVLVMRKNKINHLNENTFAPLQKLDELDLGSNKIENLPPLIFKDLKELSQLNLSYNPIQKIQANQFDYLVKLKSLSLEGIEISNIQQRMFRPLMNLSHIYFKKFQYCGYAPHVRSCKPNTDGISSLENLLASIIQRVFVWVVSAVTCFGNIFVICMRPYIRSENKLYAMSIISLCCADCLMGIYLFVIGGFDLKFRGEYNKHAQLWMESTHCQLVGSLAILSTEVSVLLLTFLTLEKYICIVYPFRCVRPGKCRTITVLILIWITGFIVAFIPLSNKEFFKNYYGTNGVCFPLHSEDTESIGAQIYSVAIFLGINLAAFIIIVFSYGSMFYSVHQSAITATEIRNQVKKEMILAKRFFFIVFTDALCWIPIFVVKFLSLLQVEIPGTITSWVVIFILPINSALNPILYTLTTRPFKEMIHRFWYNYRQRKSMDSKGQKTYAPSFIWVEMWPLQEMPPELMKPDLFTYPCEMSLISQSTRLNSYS
Test: cell-based or functional assay

B1: peptide of SEQ ID NO: 20 (peptide)
peptide: Ac-LEGREKVRAK(Ac)I[Aib][Aib]EG[Nle]STWS[Aib]RKK(Ac)[TtdDga][TtdDga][TtdDga]K([γGlu-γGlu-γGlu-Stearoyl])-NH2
SMILES: CCCCCCCCCCCCCCCCCC(=O)N[C@@H](CCC(=O)N[C@@H](CCC(=O)N[C@@H](CCC(=O)NCCCC[C@H](NC(=O)COCC(=O)NCCCOCCOCCOCCCNC(=O)COCC(=O)NCCCOCCOCCOCCCNC(=O)COCC(=O)NCCCOCCOCCOCCCNC(=O)[C@H](CCCCNC(C)=O)NC(=O)[C@H](CCCCN)NC(=O)[C@H](CCCNC(=N)N)NC(=O)C(C)(C)NC(=O)[C@H](CO)NC(=O)[C@H](Cc1c[nH]c2ccccc12)NC(=O)[C@@H](NC(=O)[C@H](CO)NC(=O)[C@H](CCCC)NC(=O)CNC(=O)[C@H](CCC(=O)O)NC(=O)C(C)(C)NC(=O)C(C)(C)NC(=O)[C@@H](NC(=O)[C@H](CCCCNC(C)=O)NC(=O)[C@H](C)NC(=O)[C@H](CCCNC(=N)N)NC(=O)[C@@H](NC(=O)[C@H](CCCCN)NC(=O)[C@H](CCC(=O)O)NC(=O)[C@H](CCCNC(=N)N)NC(=O)CNC(=O)[C@H](CCC(=O)O)NC(=O)[C@H](CC(C)C)NC(C)=O)C(C)C)[C@@H](C)CC)[C@@H](C)O)C(N)=O)C(=O)O)C(=O)O)C(=O)O
EC50 (nM), OVCAR 5 cells (cAMP): 0.45 nM
EMax, OVCAR 5 cells (cAMP): 88%

B3: peptide of SEQ ID NO: 188 (peptide)
peptide: Ac-LEGREKVRAK(Ac)I[Aib][Aib]EG[Nle]STFS[αMeK]RAK(Ac)[TTDS][TTDS][TTDS]K([γGlu-γGlu-γGlu-Pentadecanoyl])-NH2
SMILES: CCCCCCCCCCCCCCC(=O)N[C@@H](CCC(=O)N[C@@H](CCC(=O)N[C@@H](CCC(=O)NCCCC[C@H](NC(=O)CCC(=O)NCCCOCCOCCOCCCNC(=O)CCC(=O)NCCCOCCOCCOCCCNC(=O)CCC(=O)NCCCOCCOCCOCCCNC(=O)[C@H](CCCCNC(C)=O)NC(=O)[C@H](C)NC(=O)[C@H](CCCNC(=N)N)NC(=O)[C@](C)(CCCCN)NC(=O)[C@H](CO)NC(=O)[C@H](Cc1ccccc1)NC(=O)[C@@H](NC(=O)[C@H](CO)NC(=O)[C@H](CCCC)NC(=O)CNC(=O)[C@H](CCC(=O)O)NC(=O)C(C)(C)NC(=O)C(C)(C)NC(=O)[C@@H](NC(=O)[C@H](CCCCNC(C)=O)NC(=O)[C@H](C)NC(=O)[C@H](CCCNC(=N)N)NC(=O)[C@@H](NC(=O)[C@H](CCCCN)NC(=O)[C@H](CCC(=O)O)NC(=O)[C@H](CCCNC(=N)N)NC(=O)CNC(=O)[C@H](CCC(=O)O)NC(=O)[C@H](CC(C)C)NC(C)=O)C(C)C)[C@@H](C)CC)[C@@H](C)O)C(N)=O)C(=O)O)C(=O)O)C(=O)O
EC50 (nM), OVCAR 5 cells (cAMP): 0.75 nM
EMax, OVCAR 5 cells (cAMP): 100%

B4: peptide of SEQ ID NO: 187 (peptide)
peptide: Ac-LEGREKVRAK(Ac)I[Aib][Aib]EG[Nle]STFS[αMeK]RAK(Ac)[TTDS][TTDS][TTDS]K([γGlu-γGlu-γGlu-Palmitoyl])-NH2
SMILES: CCCCCCCCCCCCCCCC(=O)N[C@@H](CCC(=O)N[C@@H](CCC(=O)N[C@@H](CCC(=O)NCCCC[C@H](NC(=O)CCC(=O)NCCCOCCOCCOCCCNC(=O)CCC(=O)NCCCOCCOCCOCCCNC(=O)CCC(=O)NCCCOCCOCCOCCCNC(=O)[C@H](CCCCNC(C)=O)NC(=O)[C@H](C)NC(=O)[C@H](CCCNC(=N)N)NC(=O)[C@](C)(CCCCN)NC(=O)[C@H](CO)NC(=O)[C@H](Cc1ccccc1)NC(=O)[C@@H](NC(=O)[C@H](CO)NC(=O)[C@H](CCCC)NC(=O)CNC(=O)[C@H](CCC(=O)O)NC(=O)C(C)(C)NC(=O)C(C)(C)NC(=O)[C@@H](NC(=O)[C@H](CCCCNC(C)=O)NC(=O)[C@H](C)NC(=O)[C@H](CCCNC(=N)N)NC(=O)[C@@H](NC(=O)[C@H](CCCCN)NC(=O)[C@H](CCC(=O)O)NC(=O)[C@H](CCCNC(=N)N)NC(=O)CNC(=O)[C@H](CCC(=O)O)NC(=O)[C@H](CC(C)C)NC(C)=O)C(C)C)[C@@H](C)CC)[C@@H](C)O)C(N)=O)C(=O)O)C(=O)O)C(=O)O
EC50 (nM), OVCAR 5 cells (cAMP): 0.33 nM
EMax, OVCAR 5 cells (cAMP): 100%

Binder: Ac-LEGREKVRAK(Ac)I[Aib][Aib]EG[Nle]STWS[Aib]RKK(Ac)[PEG8′]K([γGlu-γGlu-γGlu-Palmitoyl])-NH2 [peptide of SEQ ID NO: 181]
EC50 (nM), OVCAR 5 cells (cAMP): 1.63 nM
EMax, OVCAR 5 cells (cAMP): 79%

Binder: Ac-LEGREKVRAK(Ac)I[Aib][Aib]EGQSTFS[αMeK]RAK(Ac)[PEG2′][PEG2′][PEG2′][PEG2′][γGlu][γGlu]K([γGlu-γGlu-Palmitoyl])-NH2 [peptide of SEQ ID NO: 185]
EC50 (nM), OVCAR 5 cells (cAMP): 0.05 nM
EMax, OVCAR 5 cells (cAMP): 100%

Binder: Ac-LEGREKVRAK(Ac)I[Aib][Aib]EGQSTFS[αMeK]RAK(Ac)[PEG2′][PEG2′][PEG2′][PEG2′]K([γGlu-γGlu-γGlu-γGlu-Myristoyl])-NH2 [peptide of SEQ ID NO: 190]
EC50 (nM), OVCAR 5 cells (cAMP): 1.29 nM
EMax, OVCAR 5 cells (cAMP): 93%

Binder: Ac-LEGREKVRAK(Ac)I[Aib][Aib]EGQSTFS[αMeK]RAK(Ac)[PEG2′][PEG2′][PEG2′][PEG2′]K([γGlu-γGlu-γGlu-γGlu-Pentadecanoyl])-NH2 [peptide of SEQ ID NO: 182]
EC50 (nM), OVCAR 5 cells (cAMP): 0.19 nM
EMax, OVCAR 5 cells (cAMP): 99%

Results, then the binder that gave them:

EC50 (nM), OVCAR 5 cells (cAMP): 0.15 nM
EMax, OVCAR 5 cells (cAMP): 96%
B2: peptide of SEQ ID NO: 19 (peptide)
peptide: Ac-LEGREKVRAK(Ac)I[Aib][Aib]EG[Nle]STWS[Aib]RKK(Ac)[TtdDga][TtdDga]K([γGlu-γGlu-γGlu-Stearoyl])-NH2
SMILES: CCCCCCCCCCCCCCCCCC(=O)N[C@@H](CCC(=O)N[C@@H](CCC(=O)N[C@@H](CCC(=O)NCCCC[C@H](NC(=O)COCC(=O)NCCCOCCOCCOCCCNC(=O)COCC(=O)NCCCOCCOCCOCCCNC(=O)[C@H](CCCCNC(C)=O)NC(=O)[C@H](CCCCN)NC(=O)[C@H](CCCNC(=N)N)NC(=O)C(C)(C)NC(=O)[C@H](CO)NC(=O)[C@H](Cc1c[nH]c2ccccc12)NC(=O)[C@@H](NC(=O)[C@H](CO)NC(=O)[C@H](CCCC)NC(=O)CNC(=O)[C@H](CCC(=O)O)NC(=O)C(C)(C)NC(=O)C(C)(C)NC(=O)[C@@H](NC(=O)[C@H](CCCCNC(C)=O)NC(=O)[C@H](C)NC(=O)[C@H](CCCNC(=N)N)NC(=O)[C@@H](NC(=O)[C@H](CCCCN)NC(=O)[C@H](CCC(=O)O)NC(=O)[C@H](CCCNC(=N)N)NC(=O)CNC(=O)[C@H](CCC(=O)O)NC(=O)[C@H](CC(C)C)NC(C)=O)C(C)C)[C@@H](C)CC)[C@@H](C)O)C(N)=O)C(=O)O)C(=O)O)C(=O)O

EC50 (nM), OVCAR 5 cells (cAMP): 0.62 nM
EMax, OVCAR 5 cells (cAMP): 91%
Binder: Ac-LEGREKVRAK(Ac)I[Aib][Aib]EG[Nle]STFS[αMeK]RAK(Ac)[PEG2′][PEG2′][PEG2′][PEG2′]K([γGlu-γGlu-γGlu-Palmitoyl])-NH2 [peptide of SEQ ID NO: 192]

EC50 (nM), OVCAR 5 cells (cAMP): 0.08 nM
EMax, OVCAR 5 cells (cAMP): 94%
Binder: Ac-LEGREKVRAK(Ac)I[Aib][Aib]EG[Nle]STFS[αMeK]RAK(Ac)K([TTDS″-TTDS″-TTDS″-γGlu-γGlu-γGlu-Palmitoyl])-NH2 [peptide of SEQ ID NO: 183]

EC50 (nM), OVCAR 5 cells (cAMP): 0.42 nM
EMax, OVCAR 5 cells (cAMP): 100%
Binder: Ac-LEGREKVRAK(Ac)I[Aib][Aib]EGQSTFS[αMeK]RAK(Ac)K([TTDS″-TTDS″-TTDS″-γGlu-γGlu-γGlu-Pentadecanoyl])-NH2 [peptide of SEQ ID NO: 189]

EC50 (nM), OVCAR 5 cells (cAMP): 19.9 nM
EMax, OVCAR 5 cells (cAMP): 80%
Binder: Ac-LEGREKVRAK(Ac)I[Aib][Aib]EGQSTYS[Aib]RKK(Ac)[PEG2′][PEG2′][PEG2′]K([γGlu-γGlu-γGlu-Palmitoyl])-NH2 [peptide of SEQ ID NO: 179]

EC50 (nM), OVCAR 5 cells (cAMP): 0.18 nM
EMax, OVCAR 5 cells (cAMP): 100%
Binder: Ac-LEGREKVRAK(Ac)I[Aib][Aib]EGQSTFS[αMeK]RAK(Ac)[PEG2′][PEG2′][PEG2′][PEG2′][γGlu][γGlu]K([γGlu-γGlu-Pentadecanoyl])-NH2 [peptide of SEQ ID NO: 186]

EC50 (nM), OVCAR 5 cells (cAMP): 0.17 nM
EMax, OVCAR 5 cells (cAMP): 93%
Binder: Ac-LEGREKVRAK(Ac)I[Aib][Aib]EGQSTFS[αMeK]RAK(Ac)K([PEG2′-PEG2′-PEG2′-PEG2′-γGlu-γGlu-γGlu-γGlu-Palmitoyl])-NH2 [peptide of SEQ ID NO: 191]

EC50 (nM), OVCAR 5 cells (cAMP): 1.18 nM
EMax, OVCAR 5 cells (cAMP): 84%
Binder: Ac-LEGREKVRAK(Ac)I[Aib][Aib]EGQSTWS[Aib]RKK(Ac)K([PEG2′-PEG2′-PEG2′-PEG2′-γGlu-γGlu-γGlu-γGlu-Stearoyl])-NH2 [peptide of SEQ ID NO: 180]
